Earlier results on three substances are cited in paper PMC6678900.

By pKd is commonly meant the Kd on a negative log10 scale, so that one unit is a factor of ten.

pKd: −log10 of the molar value.

Some targets named below: TRAILR1 (Homo sapiens) (UniProt O00220); TRAILR4 (Homo sapiens) (UniProt Q9UBN6); TRAILR2 (Homo sapiens) (UniProt O14763).

As for TRAILR1 (from UniProt O00220), the pKd with TRAILR1 (Homo sapiens) was less than 6.00.
With TRAILR4 (from UniProt Q9UBN6), the pKd with TRAILR4 (Homo sapiens) is less than 6.00.
For TRAILR2 (from UniProt O14763), in the data set with TRAILR2 (Homo sapiens), the pKd is less than 6.00.
